# Data: patent US20240033374A1, “Nano-structural Protein Degradation Tool, Use, and Preparation Method thereof, and Lipid-based Protein Degradation Tool, Use, and Preparation Method thereof” (HENAN UNIVERSITY, priority 2022, published 2024)
# B1: CRLZ-NP: Camrelizumab (CRLZ), PEG-DSPE linker, PLGA nanoparticle (conjugate, chains of the INN, looked up)
# VH: EVQLVESGGGLVQPGGSLRLSCAASGFTFSSYMMSWVRQAPGKGLEWVATISGGGANTYYPDSVKGRFTISRDNAKNSLYLQMNSLRAEDTAVYYCARQLYYFDYWGQGTTVTVSS
# VL: DIQMTQSPSSLSASVGDRVTITCLASQTIGTWLTWYQQKPGKAPKLLIYTATSLADGVPSRFSGSGSGTDFTLTISSLQPEDFATYYCQQVYSIPWTFGGGTKVEIK
# modifications: PEG-DSPE PLGA nanoparticle
# Columns and labels:
# EGFR [1] = molecular target: T1, EGFR (Homo sapiens, UniProt P00533); assay: EGFR protein degradation in cells, protein electrophoresis (Western blot); assay type: cell-based
# T1 construct: can degrade the membrane receptor protein EGFR in various tumor cells; endogenous in cells; host or cells: MDA-MB-231 (M231), HeLa, U87
# Procedure: In the above, the NP group refers to nanoparticles not linked with the POI recognition groups in the example. In all the examples involving multi-concentration test, the control group for POI recognition group and the control group for lipid hybrid substance were treated with the molar concentration equal to the highest concentration in concentration test group. All the protein electropherograms take GAPDH or VIN (vinculin) as internal reference.
# [2] = Dynamic light scattering particle size and PDI; assay type: physicochemical
# Text: FIG. 68 is a structural schematic diagram of CTX-RBCmD. FIG. 69 is a diagram of DLS particle size distribution results.
# β-amyloid 1-42 oligomer = molecular target: T2, β-amyloid 1-42 oligomer (Homo sapiens, UniProt P05067); assay: Endocytosis of FITC-labeled β-amyloid 1-42 oligomer in human glial cells, confocal microscope; assay type: cell-based; conditions: 10 μM, 12 hours
# T2 construct: oligomers prepared from FITC green dye-labeled β-amyloid 1-42 polypeptide; host or cells: exogenous peptide added to human glial cells
# Procedure: 1 μM FITC fluorescein-labeled 5 μM β-amyloid oligomer and AB-NP were co-cultured in human glial cells for 4 hours, subsequently extracellular solution was washed away with PBS. […] The lysosome theoretically can degrade β-amyloid so as to eliminate toxicity brought about by β-amyloid extracellular accumulation. (3) β-amyloid hijack experiment: 10 μM oligomers prepared from FITC green dye-labeled 3-amyloid 1-42 peptide and 10 μM AV45-NP were co-incubated, then, the treated residue not entering the cell was washed off with PBS, followed by confocal microscope imaging, to detect green fluorescence of the β-amyloid 1-42 oligomers. […] The lysosomal dye lysoTracker was used to label the lysosome. […] 10 μM AV-45 or AV45-NP and 10 μM FITC green fluorescence dye-labeled β-amyloid oligomers were co-incubated in culture medium and treated human glial cells for 12 hours.
# human glioma in situ = assay: In situ glioma model, immunohistochemical detection of EGFR and PCNA; assay type: in vivo, nude mice; conditions: 10 mg/kg intravenous, every other day, 5 times
# Procedure: The administration was performed once every other day, 5 times in total, and after the administration cycle was completed, the mice were euthanized the next day, the brain tissues were taken and paraffin-embedded, and sectioned for immunohistochemical staining to study the protein degradation effect of NTZ on target protein EGFR and the tumor inhibition by detecting the tumor proliferation marker PCNA.
# [3] = Acute toxicity, blood parameters of liver and kidney function after a single administration; assay type: in vivo, mice; conditions: 10 mg/kg via tail vein, blood 12 hours after injection
# Procedure: In the present example, acute hepatotoxicity on mice by the NTZ-NP nano-structural protein degradation tool was studied. The nanoparticles, the solvent PBS control, NTZ antibodies of equal molar quantity, and NP of equal molar quantity without NTZ antibodies (10 mg/kg) were injected into mice via tail vein, blood was taken 12 hours after injection, and blood biochemical indicators were detected by a kit.
# EGFR [4] = molecular target: T1, EGFR; assay: EGFR on cell surfaces, immunofluorescent staining and confocal microscopy, M231 cells; assay type: cell-based; conditions: 500 nM antibodies, 24 hours
# EGFP-labeled fused EGFR = molecular target: T3, EGFP-labeled fused EGFR (Homo sapiens, UniProt P00533); assay: Live-cell confocal imaging of EGFP-fused EGFR in M231 cells; assay type: cell-based; conditions: M231 living cells, fixed visual field, photographed continuously
# T3 construct: expressed in transfected cells; host or cells: MDA-MB-231 (M231)
# HepG2 cells = assay: CCK8 cell viability assay; assay type: cell-based, human; conditions: 500 nM antibody, 24 h, p<0.001
# PD-1 receptor protein = molecular target: T4, PD-1 receptor protein (Homo sapiens, UniProt Q15116); assay: PD-1 expression in JURKAT cells overexpressing PD-1, protein electrophoresis; assay type: cell-based; conditions: JURKAT cells overexpressing PD-1, 500 nM, 24 h
# T4 construct: expressed in transfected cells; host or cells: JURKAT cells overexpressing PD-1
# [5] = M231 cells, 500 nM, fresh medium without treatment from the 24th hour
# Procedure for M231 tumor: Administration every other day (15 mg/kg) was started on day 10 of inoculation of M231 tumor in female nude mice at 6-8 weeks of age, and a volume of the tumor (tumor length: a and width: b, volume calculation formula: ½ab^2) of the mice and body weight change were continuously monitored. After two weeks of administration, 7 times in total, the mice were euthanized the next day after the last administration, tumor tissues were isolated, and the tumor tissues were subjected to protein electrophoresis and immunofluorescence detection.
# In the above, after being isolated, the tumor tissues were paraffin-embedded and sectioned, followed by immunofluorescence staining, and immunofluorescence staining results of EGFR and apoptotic core signal cleaved caspase-3 were detected.
# T2 sequence (P05067 672-713 limits assumed): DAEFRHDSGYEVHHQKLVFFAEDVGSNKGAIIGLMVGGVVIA
# T4 sequence (Q15116 25-288): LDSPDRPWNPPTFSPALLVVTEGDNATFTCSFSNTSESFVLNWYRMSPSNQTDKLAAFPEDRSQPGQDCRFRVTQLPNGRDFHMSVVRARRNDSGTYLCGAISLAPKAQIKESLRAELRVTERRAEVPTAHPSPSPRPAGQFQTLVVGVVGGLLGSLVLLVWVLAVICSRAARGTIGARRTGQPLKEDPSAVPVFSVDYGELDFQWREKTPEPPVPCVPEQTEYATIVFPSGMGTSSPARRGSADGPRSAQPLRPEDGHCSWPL
molecule,measurement,setting,value
NTZ-LNP2: NTZ-PEG-DMG with HSPC + cholesterol + DOTAP lipid nanoparticle,EGFR protein expression (protein electrophoresis),"EGFR [1]; M231 cells, 24 h, concentration not given",can effectively degrade the target protein EGFR
NTZ-lipoP: NTZ-PEG-DSPE on HSPC/cholesterol lipid membrane wrapping PLGA nanoparticles,SIZE (DLS particle size),[2],257 ± 7.0
"CNc1ccc(/C=C/c2ccc(OCCOCCOCCF)nc2)cc1 [AV45, AV-45]",AV45 autofluorescence in cells (cell internalization),β-amyloid 1-42 oligomer,very weak
ANG/NTZ-NP: NTZ-PEG-DSPE plus 20% Angiopep2-PEG-DSPE self-assembled with PLGA,EGFR in brain tumor (immunohistochemistry),human glioma in situ,solvent PBS control group and the NTZ-NP group are stronger than the ANG/NTZ-NP group
same,proliferation marker PCNA in brain tumor (immunohistochemistry),human glioma in situ,solvent PBS control group and the NTZ-NP group are stronger than the ANG/NTZ-NP group
"NTZ-NP: PLGA nanoparticle core, PEG-DSPE intermediate layer, NTZ antibodies at periphery",particle size (dynamic light scattering),[2],about 150 nm
same,EGFR expression (protein electrophoresis),"EGFR [1]; HeLa cells, 500 nM, 24 h",obvious decreases in EGFR expression
same,EGFR protein level / expression (protein electrophoresis),"EGFR [1]; M231 cells, 500 nM, 24 h",obvious decreases in EGFR expression
same,EGFR gradually recovered after,EGFR [1]; [5],> 72 h
same,optimal degradation time for a single treatment,EGFR [1]; [5],24 to 48 h
same,concentration at which EGFR is effectively degraded (as low as),"EGFR [1]; M231 cells, 24 h",10 nM
same,EGFR expression (protein electrophoresis),"EGFR [1]; U87 cells, 500 nM, 24 h",obvious decreases in EGFR expression
same,"blood parameters BUN, UA, CR, ALB, ALP, ALT, AST",[3],no obvious abnormality
same,EGFR in brain tumor (immunohistochemistry),human glioma in situ,stronger than the ANG/NTZ-NP group
same,proliferation marker PCNA in brain tumor (immunohistochemistry),human glioma in situ,stronger than the ANG/NTZ-NP group
same,EGFR expression on cell surfaces (immunofluorescence),EGFR [4],remarkably decreased
same,EGFR protein expression level in isolated tumor tissues (protein electrophoresis),"M231 tumor; 15 mg/kg every other day, 7 times, five mice, p<0.05",significantly down-regulated
same,tumor volume proliferation,"M231 tumor; 15 mg/kg every other day, 7 times, versus PBS, equal molar NTZ antibody and antibody-free nanoparticle groups",obviously inhibited
same,EGFR signal in tumor tissues (immunofluorescence staining),M231 tumor; after treatment completed,EGFR signal is reduced
same,apoptotic signal cleaved caspase-3 in tumor tissues (immunofluorescence staining),M231 tumor; after treatment completed,apoptotic signal rises
same,green fluorescence signal of EGFP-labeled fused EGFR,EGFP-labeled fused EGFR,gradually decreases over time
same,cell proliferation (CCK8 cell viability),HepG2 cells,significantly inhibited
NTZ-PEGlipo: NTZ antibody coupled to NHS-PEG liposomes (HSPC + cholesterol),EGFR protein level / expression (protein electrophoresis),"EGFR [1]; M231 cells, 500 nM, 24 h",can effectively degrade the target protein EGFR
B1,expression of PD-1 receptor protein,PD-1 receptor protein,obviously reduced
